Experimental data from PMC8922275, “DNA-Dependent Binding of Nargenicin to DnaE1 Inhibits Replication in Mycobacterium tuberculosis” (ACS Infectious Diseases, 2022).

How the values were obtained:
[1] = molecular target: DnaE (Staphylococcus aureus, UniProt Q5HF71); experiment: real-time fluorescence-quench DNA polymerase assay (text […]; Figure […] legend […]); format: biochemical
[2] = molecular target: T1, DNA polymerase III α (Pol IIIα) (Escherichia coli, UniProt P10443); experiment: real-time fluorescence-quench DNA polymerase assay; format: biochemical
T1 construct: gene dnaE
T1 sequence (P10443 whole entry): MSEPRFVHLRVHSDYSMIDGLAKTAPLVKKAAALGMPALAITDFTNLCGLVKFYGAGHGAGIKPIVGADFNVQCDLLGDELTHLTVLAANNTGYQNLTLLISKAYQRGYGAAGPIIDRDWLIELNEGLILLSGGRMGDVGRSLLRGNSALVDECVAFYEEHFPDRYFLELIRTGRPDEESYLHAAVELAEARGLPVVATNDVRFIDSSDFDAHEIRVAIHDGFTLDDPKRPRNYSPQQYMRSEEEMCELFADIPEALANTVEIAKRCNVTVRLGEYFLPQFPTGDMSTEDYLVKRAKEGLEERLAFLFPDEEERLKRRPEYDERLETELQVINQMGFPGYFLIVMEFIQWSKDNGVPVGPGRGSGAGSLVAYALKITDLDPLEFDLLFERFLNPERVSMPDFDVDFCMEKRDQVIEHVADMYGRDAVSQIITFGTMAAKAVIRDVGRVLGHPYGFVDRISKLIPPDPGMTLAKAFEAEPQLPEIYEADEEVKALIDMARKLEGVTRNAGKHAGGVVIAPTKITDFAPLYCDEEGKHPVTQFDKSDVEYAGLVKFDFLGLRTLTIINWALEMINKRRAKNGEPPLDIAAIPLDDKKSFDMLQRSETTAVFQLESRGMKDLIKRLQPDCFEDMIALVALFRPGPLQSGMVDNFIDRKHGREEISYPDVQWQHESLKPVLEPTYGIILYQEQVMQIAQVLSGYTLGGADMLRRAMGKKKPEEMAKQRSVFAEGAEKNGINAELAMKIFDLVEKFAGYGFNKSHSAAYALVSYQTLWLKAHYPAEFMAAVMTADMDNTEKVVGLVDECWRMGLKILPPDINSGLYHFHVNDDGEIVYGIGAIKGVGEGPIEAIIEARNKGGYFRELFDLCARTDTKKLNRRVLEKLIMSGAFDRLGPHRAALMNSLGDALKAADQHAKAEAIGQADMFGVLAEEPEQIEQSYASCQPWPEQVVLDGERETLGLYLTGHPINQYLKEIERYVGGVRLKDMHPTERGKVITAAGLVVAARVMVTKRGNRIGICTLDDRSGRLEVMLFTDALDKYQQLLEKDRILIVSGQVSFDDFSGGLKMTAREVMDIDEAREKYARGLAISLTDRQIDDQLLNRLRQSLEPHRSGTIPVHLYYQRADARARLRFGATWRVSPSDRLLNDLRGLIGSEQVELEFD

[3] = molecular target: T2, DnaE1 (Mycobacterium tuberculosis, UniProt P9WNT7); experiment: ([…] Å) with DNA; […]; format: biochemical
T2 construct: full-length
T2 sequence (P9WNT7 1-1184): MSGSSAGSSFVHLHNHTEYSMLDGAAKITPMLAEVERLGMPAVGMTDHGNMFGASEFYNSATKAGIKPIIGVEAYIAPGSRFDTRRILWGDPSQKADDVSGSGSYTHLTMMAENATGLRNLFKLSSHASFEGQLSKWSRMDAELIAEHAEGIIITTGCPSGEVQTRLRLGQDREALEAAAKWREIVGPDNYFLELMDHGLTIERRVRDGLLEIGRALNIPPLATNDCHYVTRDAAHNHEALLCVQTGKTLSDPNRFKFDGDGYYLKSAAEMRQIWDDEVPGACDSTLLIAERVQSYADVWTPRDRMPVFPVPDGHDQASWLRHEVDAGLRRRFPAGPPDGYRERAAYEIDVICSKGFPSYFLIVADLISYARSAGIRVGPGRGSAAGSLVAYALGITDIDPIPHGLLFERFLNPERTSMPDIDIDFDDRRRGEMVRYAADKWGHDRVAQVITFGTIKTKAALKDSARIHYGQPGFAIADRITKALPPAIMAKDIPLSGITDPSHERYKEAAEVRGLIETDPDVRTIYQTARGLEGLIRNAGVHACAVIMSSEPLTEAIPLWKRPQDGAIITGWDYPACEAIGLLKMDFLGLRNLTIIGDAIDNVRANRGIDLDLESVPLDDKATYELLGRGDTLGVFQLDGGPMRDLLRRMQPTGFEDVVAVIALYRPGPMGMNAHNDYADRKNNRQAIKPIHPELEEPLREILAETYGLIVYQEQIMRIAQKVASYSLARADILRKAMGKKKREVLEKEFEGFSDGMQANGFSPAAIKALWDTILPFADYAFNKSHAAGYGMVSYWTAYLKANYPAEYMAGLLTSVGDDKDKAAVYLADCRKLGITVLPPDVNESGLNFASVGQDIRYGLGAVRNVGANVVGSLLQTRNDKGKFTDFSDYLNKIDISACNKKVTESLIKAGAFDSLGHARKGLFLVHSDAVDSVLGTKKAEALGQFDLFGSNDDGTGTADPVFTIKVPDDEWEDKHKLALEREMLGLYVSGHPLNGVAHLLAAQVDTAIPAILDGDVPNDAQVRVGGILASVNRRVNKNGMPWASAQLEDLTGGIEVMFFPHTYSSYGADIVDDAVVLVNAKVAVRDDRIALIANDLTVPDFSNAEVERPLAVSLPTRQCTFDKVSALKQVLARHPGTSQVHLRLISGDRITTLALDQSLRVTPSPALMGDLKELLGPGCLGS

[4] = molecular target: T3, DnaE1 (replicative DNA polymerase) (Mycobacterium tuberculosis, UniProt P9WNT7 1-1184); experiment: cryo-EM structure (2.9 Å); 10 uM nargenicin, 5 mM MgCl2; details: protein: recombinant
T3 sequence: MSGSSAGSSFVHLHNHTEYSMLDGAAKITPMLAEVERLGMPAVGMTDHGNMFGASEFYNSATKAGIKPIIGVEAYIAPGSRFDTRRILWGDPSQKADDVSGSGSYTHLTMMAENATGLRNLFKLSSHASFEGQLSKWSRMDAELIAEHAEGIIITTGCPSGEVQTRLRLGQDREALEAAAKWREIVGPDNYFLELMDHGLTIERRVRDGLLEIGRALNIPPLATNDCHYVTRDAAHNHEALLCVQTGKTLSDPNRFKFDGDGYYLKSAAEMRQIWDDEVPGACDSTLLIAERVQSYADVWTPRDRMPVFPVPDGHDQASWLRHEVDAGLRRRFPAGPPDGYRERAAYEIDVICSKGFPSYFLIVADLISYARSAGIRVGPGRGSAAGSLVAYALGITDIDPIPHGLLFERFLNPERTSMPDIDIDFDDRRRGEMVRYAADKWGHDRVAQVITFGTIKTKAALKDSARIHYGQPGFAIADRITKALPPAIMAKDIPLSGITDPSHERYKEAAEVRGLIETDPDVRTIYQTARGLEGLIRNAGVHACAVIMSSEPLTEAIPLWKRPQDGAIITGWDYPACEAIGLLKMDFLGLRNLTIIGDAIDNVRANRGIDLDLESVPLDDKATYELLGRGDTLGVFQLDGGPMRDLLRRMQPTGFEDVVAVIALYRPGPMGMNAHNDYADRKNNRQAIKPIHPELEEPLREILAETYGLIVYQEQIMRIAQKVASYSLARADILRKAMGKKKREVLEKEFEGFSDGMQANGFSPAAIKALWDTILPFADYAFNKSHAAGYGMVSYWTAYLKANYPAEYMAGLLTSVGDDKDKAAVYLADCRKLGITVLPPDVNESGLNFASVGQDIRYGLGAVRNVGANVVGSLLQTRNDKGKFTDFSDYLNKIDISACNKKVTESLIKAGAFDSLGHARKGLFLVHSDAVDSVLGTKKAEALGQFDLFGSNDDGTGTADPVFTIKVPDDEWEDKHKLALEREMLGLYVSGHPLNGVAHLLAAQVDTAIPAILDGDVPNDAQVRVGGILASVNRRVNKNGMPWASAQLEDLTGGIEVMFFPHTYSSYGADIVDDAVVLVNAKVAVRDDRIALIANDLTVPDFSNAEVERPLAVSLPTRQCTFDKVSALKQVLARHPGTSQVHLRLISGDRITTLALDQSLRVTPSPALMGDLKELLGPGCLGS

[5] = molecular target: T3, DnaE1 (replicative DNA polymerase); experiment: fluorescence anisotropy; details: protein: recombinant; label: 5'-Cy3 on primer (strand 1); 24 bp duplex, 5' overhang 30 nt on template
[6] = molecular target: DnaE S765L (Staphylococcus aureus, UniProt Q9F1K0 1-1065, S765L); experiment: fluorescence anisotropy; Anisotropy: 5 nM DNA, 25 mM HEPES pH 7.5, 50 mM potassium glutamate, 2 mM DTT, 0.5 mg/mL BSA, 24 °C. Cryo-EM: 20 mM PIPES pH 7.0, 50 mM potassium glutamate, 5 mM MgCl2, 2 mM DTT, 0.01% Tween-20; details: protein: recombinant; label: 5'-Cy3 on primer (strand 1); 24 bp duplex, 5' overhang 30 nt on template
[7] = molecular target: T4, DnaE (replicative DNA polymerase) (Staphylococcus aureus, UniProt Q9F1K0 1-1065); experiment: as above; details: protein: recombinant; label: 5'-Cy3 on primer (strand 1); 24 bp duplex, 5' overhang 30 nt on template
T4 sequence: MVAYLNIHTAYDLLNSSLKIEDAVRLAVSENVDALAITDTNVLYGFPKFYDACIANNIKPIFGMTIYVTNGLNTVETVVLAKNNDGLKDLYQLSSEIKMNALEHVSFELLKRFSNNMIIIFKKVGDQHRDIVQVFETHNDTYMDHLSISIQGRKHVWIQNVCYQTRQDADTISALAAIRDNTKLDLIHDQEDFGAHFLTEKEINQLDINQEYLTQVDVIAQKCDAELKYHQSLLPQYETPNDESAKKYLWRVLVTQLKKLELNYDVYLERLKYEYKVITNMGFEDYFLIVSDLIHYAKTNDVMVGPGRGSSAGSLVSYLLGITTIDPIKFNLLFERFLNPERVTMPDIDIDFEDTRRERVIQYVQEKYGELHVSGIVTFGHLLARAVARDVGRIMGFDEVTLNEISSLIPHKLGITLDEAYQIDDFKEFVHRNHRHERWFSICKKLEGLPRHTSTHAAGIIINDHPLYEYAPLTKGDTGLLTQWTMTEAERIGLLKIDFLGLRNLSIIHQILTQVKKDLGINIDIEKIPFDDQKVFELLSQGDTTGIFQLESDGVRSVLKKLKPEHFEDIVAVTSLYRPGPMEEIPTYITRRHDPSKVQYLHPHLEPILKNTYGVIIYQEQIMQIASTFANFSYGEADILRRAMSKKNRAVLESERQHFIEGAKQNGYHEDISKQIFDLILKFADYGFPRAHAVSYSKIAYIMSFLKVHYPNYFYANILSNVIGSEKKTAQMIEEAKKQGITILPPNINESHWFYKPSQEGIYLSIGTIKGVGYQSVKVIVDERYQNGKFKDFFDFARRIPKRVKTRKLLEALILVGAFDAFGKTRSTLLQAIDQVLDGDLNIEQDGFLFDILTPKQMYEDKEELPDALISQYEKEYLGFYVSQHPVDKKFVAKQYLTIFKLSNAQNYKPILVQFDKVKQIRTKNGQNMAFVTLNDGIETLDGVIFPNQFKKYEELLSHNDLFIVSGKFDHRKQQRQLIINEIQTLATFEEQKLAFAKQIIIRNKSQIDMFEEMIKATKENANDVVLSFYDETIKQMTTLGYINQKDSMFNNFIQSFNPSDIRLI

[8] = molecular target: Pol IIIα (replicative DNA polymerase) (Escherichia coli, UniProt P10443 1-1160); experiment: as above; details: protein: recombinant; label: 5'-Cy3 on primer (strand 1); 24 bp duplex, 5' overhang 30 nt on template

Question: Which results are given for COC1CC2C=CC3C4OC2(/C(C)=C/C(C)C(C(C)O)OC1=O)C3C(O)C(C)C4OC(=O)c1ccc[nH]1 (centres unmarked) [nargenicin]?
Answer: IC50 [1]: 6 nM; IC50 [2]: 13 µM; IC50 [3]: 125 nM

B1: cryo-EM primer/template substrate (dsDNA)
DNA 1: GCACCTAAAGTTGGGAGTCCTTCGTCCTT
DNA 2: GATAGAGCAGAAGGACGAAGGACTCCCAACTTTAGGTG
modifications: phosphorothioate bond between the last two nt of the primer (T*T)
Question: Does B1 bind [4]?
Answer: Result: binds

B2: primed DNA substrate (anisotropy) (dsDNA)
DNA 1: GGTAACGCCAGGGTTTTCCCAGTC
DNA 2: CGCTCACTGGCCGTCGTTTTACAACGTCGTGACTGGGAAAACCCTGGCGTTACC
Question: Which results are given for B2?
Answer: Kd [5]: 250 nM; Kd [6]: 85 nM; Kd [7]: 6 nM; Kd [8]: 12 µM
